# Measured values from patent publication US20240108738A1 (Bicycle, published 2024).
# Numbered stars: 1 amine (or outer) side, 2 acyl side, 3 side chain; on linkers, the order of the positions; unused ones are H or OH. Bridge positions count the residues as written; N and C are the ends. Square brackets hold non-standard residues; d marks the D form. Ends that are not written are not given here. * marks the point of attachment. TATA = O=C(CC[*:1])N1CN(C(=O)CC[*:2])CN(C(=O)CC[*:3])C1; Ala(4-thiazolyl) = N[C@@H](Cc1cscn1)C(=O)O; 1Nal = N[C@@H](Cc1cccc2ccccc12)C(=O)O; 2Pal = N[C@@H](Cc1ccccn1)C(=O)O; Cba = N[C@@H](CC1CCC1)C(=O)O; Pent4ynoyl = C#CCCC(=O)*
# Target: T1, Human NKp46 Fc tag (Acro Biosystems, NC1-H5257) (human, UniProt O76036 22-255)
# T1 construct: bought; also called Fc-tagged human NKp46
# Assay: SPR Method 1 and/or 2
# Experimental: The SPR analysis was run at 25° C. and a flow rate of 50 μl/min with 60 seconds association and 200-400 seconds dissociation time. Data were corrected for DMSO excluded volume effects. All data were double-referenced for blank injections and reference surface using standard processing procedures and data processing and kinetic fitting were performed using Scrubber software, version 2.0c (BioLogic Software). Data were fitted using simple 1:1 binding model allowing for mass transport effects where appropriate.
# For analysis of peptide binding, a Biacore 8k+ instrument was used with a CM5 chip (Cytiva). All experiments were carried out at 25° C. Anti-human IgG (Fc) antibody (Cytiva) was immobilized on all flow cells by standard amine coupling chemistry. The running buffer was HBS-N(Cytiva, 10 mM HEPES, 0.15 M NaCl, pH 7.4) and the flow rate was 10 μL/min. The carboxymethyl dextran surface was activated with a 1:1 ratio of 0.4 M 1-ethyl-3-(3-dimethylaminopropyl) carbodiimide hydrochloride (EDC)/0.1 M N-hydroxy succinimide (NHS) (Cytiva) for 420s. […] Residual activated groups were blocked with a 420 s injection of 1 M ethanolamine (pH 8.5). The final surface density was 3000-5000 RU. Fc-tagged human NKp46 was diluted to 0.1 μM in HBS-N and was captured on flow cell 2 only of the sensor chip at a flow rate of 10 μL/min to 500-1000 RU. The buffer was then changed to PBS-P+(Cytiva) supplemented with 2% DMSO. […] The flow rate was 50 μL/min with 60 s association and 400 s dissociation. Data were corrected for DMSO volume exclusion effects. All data were double-referenced against blank injections and reference surface response using standard processing procedures. Data processing and kinetic fitting was performed using Biacore Insight Evaluation Software with Extended Screening and Characterization Extension (Cytiva). Data were fitted using steady state affinity 1:1 binding model to determine KD. Data were fitted using kinetic 1:1 binding model to determine kinetic constants where appropriate.
# T1 sequence (O76036 22-255 limits assumed): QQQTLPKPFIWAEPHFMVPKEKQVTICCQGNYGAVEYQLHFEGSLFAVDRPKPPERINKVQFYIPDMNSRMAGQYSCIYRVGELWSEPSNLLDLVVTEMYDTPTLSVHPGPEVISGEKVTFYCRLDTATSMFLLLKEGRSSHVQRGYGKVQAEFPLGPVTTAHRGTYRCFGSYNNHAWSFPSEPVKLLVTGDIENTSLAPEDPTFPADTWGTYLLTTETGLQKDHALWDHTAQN
binder,measurement,value
"Ac-ACDLTTHNCQWGICA-NH2 (linker 2-9-14 via TATA, scaffold TATA) [BCY18261]",Kd,543 nM
"ACYLPDYLC[dK](Pent4ynoyl)DEYCA-NH2 (linker 2-9-14 via TATA; N-terminus assumed; SMILES C#CCCC(=O)NCCCC[C@H]1NC(=O)[C@@H]2CSCCC(=O)N3CN(CN(C3)C(=O)CCSC[C@@H](C(=O)N[C@@H](C)C(N)=O)NC(=O)[C@H](Cc3ccc(O)cc3)NC(=O)[C@H](CCC(=O)O)NC(=O)[C@H](CC(=O)O)NC1=O)C(=O)CCSC[C@H](NC(=O)[C@H](C)N)C(=O)N[C@@H](Cc1ccc(O)cc1)C(=O)N[C@@H](CC(C)C)C(=O)N1CCC[C@H]1C(=O)N[C@@H](CC(=O)O)C(=O)N[C@@H](Cc1ccc(O)cc1)C(=O)N[C@@H](CC(C)C)C(=O)N2, scaffold TATA) [BCY17662]",Kd,8.1 nM
"ACYLPDYLCGDEK(Pent4ynoyl)CA-NH2 (linker 2-9-14 via TATA; N-terminus assumed; SMILES C#CCCC(=O)NCCCC[C@@H]1NC(=O)[C@H](CCC(=O)O)NC(=O)[C@H](CC(=O)O)NC(=O)CNC(=O)[C@@H]2CSCCC(=O)N3CN(CN(C3)C(=O)CCSC[C@@H](C(=O)N[C@@H](C)C(N)=O)NC1=O)C(=O)CCSC[C@H](NC(=O)[C@H](C)N)C(=O)N[C@@H](Cc1ccc(O)cc1)C(=O)N[C@@H](CC(C)C)C(=O)N1CCC[C@H]1C(=O)N[C@@H](CC(=O)O)C(=O)N[C@@H](Cc1ccc(O)cc1)C(=O)N[C@@H](CC(C)C)C(=O)N2, scaffold TATA) [BCY16843]",Kd,3010 nM
"ACDLTT[His3Me]NCQWGICA-NH2 (linker 2-9-14 via TATA; not fully specified, scaffold TATA) [BCY18279]",Kd,599 nM
"ACDLTT[Ala(4-thiazolyl)]NCQWGICA-NH2 (linker 2-9-14 via TATA; N-terminus assumed; SMILES CC[C@H](C)[C@@H]1NC(=O)CNC(=O)[C@H](Cc2c[nH]c3ccccc23)NC(=O)[C@H](CCC(N)=O)NC(=O)[C@@H]2CSCCC(=O)N3CN(CN(C3)C(=O)CCSC[C@@H](C(=O)N[C@@H](C)C(N)=O)NC1=O)C(=O)CCSC[C@H](NC(=O)[C@H](C)N)C(=O)N[C@@H](CC(=O)O)C(=O)N[C@@H](CC(C)C)C(=O)N[C@@H]([C@@H](C)O)C(=O)N[C@@H]([C@@H](C)O)C(=O)N[C@@H](Cc1cscn1)C(=O)N[C@@H](CC(N)=O)C(=O)N2, scaffold TATA) [BCY18282]",Kd,661 nM
"ACYLPK(Pent4ynoyl)YLCGDEYCA-NH2 (linker 2-9-14 via TATA; N-terminus assumed; SMILES C#CCCC(=O)NCCCC[C@@H]1NC(=O)[C@@H]2CCCN2C(=O)[C@H](CC(C)C)NC(=O)[C@H](Cc2ccc(O)cc2)NC(=O)[C@@H](NC(=O)[C@H](C)N)CSCCC(=O)N2CN3CN(C2)C(=O)CCSC[C@@H](C(=O)N[C@@H](C)C(N)=O)NC(=O)[C@H](Cc2ccc(O)cc2)NC(=O)[C@H](CCC(=O)O)NC(=O)[C@H](CC(=O)O)NC(=O)CNC(=O)[C@H](CSCCC3=O)NC(=O)[C@H](CC(C)C)NC(=O)[C@H](Cc2ccc(O)cc2)NC1=O, scaffold TATA) [BCY16837]",Kd,42 nM
"ACDLTTHNCQWGICA-NH2 (linker 2-9-14 via TATA; also: scaffold TATA, TATB or TBMT, scaffold TATA) [BCY15107]",Kd,396 nM
"ACNLTTHNCQWGICA-NH2 (linker 2-9-14 via TATA; also: scaffold TATA, TATB or TBMT, scaffold TATA) [BCY18273]",Kd,326 nM
"ACDLTTHNCQW[dA]ICA-NH2 (linker 2-9-14 via TATA; N-terminus assumed; SMILES CC[C@H](C)[C@@H]1NC(=O)[C@@H](C)NC(=O)[C@H](Cc2c[nH]c3ccccc23)NC(=O)[C@H](CCC(N)=O)NC(=O)[C@@H]2CSCCC(=O)N3CN(CN(C3)C(=O)CCSC[C@@H](C(=O)N[C@@H](C)C(N)=O)NC1=O)C(=O)CCSC[C@H](NC(=O)[C@H](C)N)C(=O)N[C@@H](CC(=O)O)C(=O)N[C@@H](CC(C)C)C(=O)N[C@@H]([C@@H](C)O)C(=O)N[C@@H]([C@@H](C)O)C(=O)N[C@@H](Cc1c[nH]cn1)C(=O)N[C@@H](CC(N)=O)C(=O)N2, scaffold TATA) [BCY18292]",Kd,1460 nM
"ACDLTLHNCQWGICA-NH2 (linker 2-9-14 via TATA; also: scaffold TATA, TATB or TBMT, scaffold TATA) [BCY18278]",Kd,335 nM
"ACDLTT[His1Me]NCQWGICA-NH2 (linker 2-9-14 via TATA; not fully specified, scaffold TATA) [BCY18281]",Kd,424 nM
"ACDLTT[2Pal]NCQWGICA-NH2 (linker 2-9-14 via TATA; N-terminus assumed; SMILES CC[C@H](C)[C@@H]1NC(=O)CNC(=O)[C@H](Cc2c[nH]c3ccccc23)NC(=O)[C@H](CCC(N)=O)NC(=O)[C@@H]2CSCCC(=O)N3CN(CN(C3)C(=O)CCSC[C@@H](C(=O)N[C@@H](C)C(N)=O)NC1=O)C(=O)CCSC[C@H](NC(=O)[C@H](C)N)C(=O)N[C@@H](CC(=O)O)C(=O)N[C@@H](CC(C)C)C(=O)N[C@@H]([C@@H](C)O)C(=O)N[C@@H]([C@@H](C)O)C(=O)N[C@@H](Cc1ccccn1)C(=O)N[C@@H](CC(N)=O)C(=O)N2, scaffold TATA) [BCY18280]",Kd,1270 nM
"ACNLQNPCMKFPCAK(Pent4ynoyl)-NH2 (linker 2-8-13 via TATA (inferred), scaffold TATA) [BCY18004]",Kd,414 nM
"Ac-CDLTTHNCQWGIC-NH2 (linker 1-8-13 via TATA, scaffold TATA) [BCY18260]",Kd,1240 nM
"ACDLTTHNCQ[1Nal]GICA-NH2 (linker 2-9-14 via TATA; N-terminus assumed; SMILES CC[C@H](C)[C@@H]1NC(=O)CNC(=O)[C@H](Cc2cccc3ccccc23)NC(=O)[C@H](CCC(N)=O)NC(=O)[C@@H]2CSCCC(=O)N3CN(CN(C3)C(=O)CCSC[C@@H](C(=O)N[C@@H](C)C(N)=O)NC1=O)C(=O)CCSC[C@H](NC(=O)[C@H](C)N)C(=O)N[C@@H](CC(=O)O)C(=O)N[C@@H](CC(C)C)C(=O)N[C@@H]([C@@H](C)O)C(=O)N[C@@H]([C@@H](C)O)C(=O)N[C@@H](Cc1c[nH]cn1)C(=O)N[C@@H](CC(N)=O)C(=O)N2, scaffold TATA) [BCY18287]",Kd,637 nM
"ACYLPDYLCGDK(Pent4ynoyl)YCA-NH2 (linker 2-9-14 via TATA; N-terminus assumed; SMILES C#CCCC(=O)NCCCC[C@@H]1NC(=O)[C@H](CC(=O)O)NC(=O)CNC(=O)[C@@H]2CSCCC(=O)N3CN(CN(C3)C(=O)CCSC[C@@H](C(=O)N[C@@H](C)C(N)=O)NC(=O)[C@H](Cc3ccc(O)cc3)NC1=O)C(=O)CCSC[C@H](NC(=O)[C@H](C)N)C(=O)N[C@@H](Cc1ccc(O)cc1)C(=O)N[C@@H](CC(C)C)C(=O)N1CCC[C@H]1C(=O)N[C@@H](CC(=O)O)C(=O)N[C@@H](Cc1ccc(O)cc1)C(=O)N[C@@H](CC(C)C)C(=O)N2, scaffold TATA) [BCY16842]",Kd,2470 nM
"ACLLHDHCPNTHPKLCAK(Pent4ynoyl)-NH2 (linker 2-8-16 via TATA (inferred), scaffold TATA) [BCY18005]",Kd,729 nM
"ACDLTTHNC[Cba]WGICA-NH2 (linker 2-9-14 via TATA, scaffold TATA) [BCY18286]",Kd,1230 nM
"ACYLPDYLCK(Pent4ynoyl)DEYCA-NH2 (linker 2-9-14 via TATA; N-terminus assumed; SMILES C#CCCC(=O)NCCCC[C@@H]1NC(=O)[C@@H]2CSCCC(=O)N3CN(CN(C3)C(=O)CCSC[C@@H](C(=O)N[C@@H](C)C(N)=O)NC(=O)[C@H](Cc3ccc(O)cc3)NC(=O)[C@H](CCC(=O)O)NC(=O)[C@H](CC(=O)O)NC1=O)C(=O)CCSC[C@H](NC(=O)[C@H](C)N)C(=O)N[C@@H](Cc1ccc(O)cc1)C(=O)N[C@@H](CC(C)C)C(=O)N1CCC[C@H]1C(=O)N[C@@H](CC(=O)O)C(=O)N[C@@H](Cc1ccc(O)cc1)C(=O)N[C@@H](CC(C)C)C(=O)N2, scaffold TATA) [BCY16840]",Kd,60 nM
